PMC9913352

Molecular target: untagged human Nit1 isoform 4 (human)
Experiment: SEC; untagged proteins after on-column TEV cleavage, Superdex 200-HR, 50 mM Tris/HCl pH 8.0, 100 mM NaCl, 2 mM MgCl2, 0.3 mL/min; calibrated with marker proteins

Question: Which stoichiometry N does the source give for “untagged human Nit1 isoform 4 (natural protein)” here?
Answer: The stoichiometry N was 4.
